From publication PMC6536497 come the findings set out here.

The target of assay [1] is LGTV NS2B/3pro_D19A_E117A (Langat virus) (UniProt P29837). As to the kind of experiment: pull-down.
Assay [2] addresses LGTV NS2B/3pro_E117A (Langat virus) (UniProt P29837). As to the kind of experiment: pull-down.

On to “GFP-tagged TRAF6 (TRAF6-GFP) (from UniProt Q9Y4K3 1-522) (natural protein)”, for which the percent decrease in pull down of TRAF6 relative to NS2B/3pro WT (densitometry) stood at 58.6% in assay [1] and 56.1% in assay [2].
